Each block holds one molecule with its values, some of them ahead of it.
Experiments:
[1] = molecular target: T1, interferon receptors on Daudi cells and A549 cells (Homo sapiens (Human)) (UniProt P17181)
T1 sequence 1: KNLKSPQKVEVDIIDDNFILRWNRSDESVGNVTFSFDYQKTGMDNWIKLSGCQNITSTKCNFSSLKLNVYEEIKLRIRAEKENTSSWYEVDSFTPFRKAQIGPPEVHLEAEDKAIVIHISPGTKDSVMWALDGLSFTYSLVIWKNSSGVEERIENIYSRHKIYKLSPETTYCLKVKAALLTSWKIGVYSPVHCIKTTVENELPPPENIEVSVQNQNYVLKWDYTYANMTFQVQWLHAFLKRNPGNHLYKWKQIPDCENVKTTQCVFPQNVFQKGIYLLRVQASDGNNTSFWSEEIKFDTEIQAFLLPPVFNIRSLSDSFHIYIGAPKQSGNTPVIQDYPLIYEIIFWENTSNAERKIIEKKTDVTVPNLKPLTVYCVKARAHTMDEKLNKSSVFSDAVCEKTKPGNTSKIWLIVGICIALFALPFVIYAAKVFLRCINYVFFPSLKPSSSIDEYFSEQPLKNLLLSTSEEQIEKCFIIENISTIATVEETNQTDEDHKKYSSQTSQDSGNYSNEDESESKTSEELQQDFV
T1 sequence 2: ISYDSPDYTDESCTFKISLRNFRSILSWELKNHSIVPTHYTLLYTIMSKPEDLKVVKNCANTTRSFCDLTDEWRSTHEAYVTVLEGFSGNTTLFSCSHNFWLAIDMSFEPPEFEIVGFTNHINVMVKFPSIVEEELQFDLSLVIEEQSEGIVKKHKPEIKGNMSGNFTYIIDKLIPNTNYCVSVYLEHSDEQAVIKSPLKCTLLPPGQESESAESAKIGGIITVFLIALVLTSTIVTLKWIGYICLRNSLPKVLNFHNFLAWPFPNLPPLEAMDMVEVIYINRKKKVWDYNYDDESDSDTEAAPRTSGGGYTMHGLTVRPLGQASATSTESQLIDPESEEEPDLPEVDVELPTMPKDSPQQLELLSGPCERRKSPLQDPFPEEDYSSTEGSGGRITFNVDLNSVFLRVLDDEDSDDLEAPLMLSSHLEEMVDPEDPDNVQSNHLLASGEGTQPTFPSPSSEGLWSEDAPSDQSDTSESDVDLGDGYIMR

[2] = molecular target: T1, interferon receptors on Daudi cells and A549 cells (Homo sapiens (Human)); remark: listed apart in the source

specific activity in the Cytopathic Effect (CPE) assay for antiviral activity (EMC virus) [1]: 2e+08 units/mg
Molecule: wild type recombinant IFN-β (ligand)

specific activity in the antiviral assay relative to recombinant wild type IFN-β [2]: 2.5 fold
specific activity in the Cytopathic Effect (CPE) assay for antiviral activity (EMC virus) [1]: 4.8e+08 U/mg
B1: IFN-β(phe101) (ligand)
chain: MSYNLLGFLQRSSNFQCQKLLWQLNGRLEYCLKDRMNFDIPEEIKQLQQFQKEDAALTIYEMLQNIFAIFRQDSSSTGWNETIVENLLANVYHQINHLKTFLEEKLEKEDFTRGKLMSSLHLKRYYGRILHYLKAKEYSHCAWTIVRVEILRNFYFINRLTGYLRN
modifications: 125I label (chloramine T method) where used as the labelled ligand in the receptor binding assay; unlabelled as competitor and in the antiviral assays
